Target: Streptococcus pyogenes Cas9 (Streptococcus pyogenes, UniProt Q99ZW2 1-1368)
Test: native gel or EMSA

B1: AcrIIA4 (natural protein, Listeria monocytogenes prophage, UniProt A0A247D711 1-87, looked up)
chain: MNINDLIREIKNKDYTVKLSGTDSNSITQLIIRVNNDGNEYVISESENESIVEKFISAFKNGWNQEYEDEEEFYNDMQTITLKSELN
- Kd: 78 nM

— publication PMC6480404 (Molecular cell, 2018)
